Measurements reported in publication PMC10045489 (2023).

Each binder was assayed against full-length His-tagged SARS-CoV-2 spike protein (wild-type) (SARS-CoV-2, UniProt P0DTC2) (assay: BLI).

Binder | Kd
ab8 nanobody (VHH) VHH: QVQLVESGGGLVQPGGSLRLSCAASGFTFDDYAMSWVRQAPGKGLEWIGRMYNNGRTSYNPSLKSLVTISRDNSKNTLYLQMNSLRAEDTATYYCARDNLGYRPSENLYGMDVWGQGTQVTVSS | ~120 nM
Nb20 nanobody (VHH) VHH: QVQLVESGGGLVQAGGSLRLSCAVSGAGAHRVGWFRRAPGKEREFVAAIGASGGMTNYLDSVKGRFTISRDNAKNTIYLQMNSLKPQDTAVYYCAARDIETAEYIYWGQGTQVTVSS | ~0.72 nM
H11-H4 nanobody (VHH) VHH: QVQLVESGGGLMQAGGSLRLSCAVSGRTFSTAAMGWFRQAPGKEREFVAAIRWSGGSAYYADSVKGRFTISRDKAKNTVYLQMNSLKYEDTAVYYCAQTHYVSYLLSDYATWPYDYWGQGTQVTVSS | ~61 nM
